Measurements as given in patent US20230212218A1 (NAVIGO PROTEINS, published 2023).
Numbering of substitutions follows the chain as printed.

B1: CID-210240 (designed binder)
chain: ADNKFSQSANLLAEAKKLNDAQGGLTEEQRNGFIQSLKDDPVLRGKPNKEQQNAFYEILHLPK
notes: not tied in the text
B2: CID-213276 (designed binder)
chain: ADNKFSQSANLLAEAKKLNDAQGGITEEQRNGFIQSLKDDAKANPEANKEQQNAFYEILHLPK
notes: not tied in the text
B3: CID-210234 (designed binder)
chain: ADNKFSQSANLLAEAKKLNDAQGGLTEEQRNGFIQSLKDDASEKGANKEQQNAFYEILHLPK
notes: not tied in the text
B4: CID-213213 (designed binder)
chain: B3 chain with A41H, S42T, E43P, K44T, G45R, A46G
notes: not tied in the text
B5: CID210279 (designed binder)
chain: ADNKFSQSANLLAEAKKLNDAQGGLTEEQRNGFIQSLKDDTHPEDRQHNKEQQNAFYEILHLPK
B6: CID213235 (designed binder)
chain: ADNKFSQSANLLAEAKKLSDAQRGLTEEQRNGFIQSLKDDTKRHPKMNKEQQNAFYEILHLPK
B7: CID213333 (designed binder)
chain: B2 chain with A43T, E46G, A47N
B8: CID213197 (designed binder)
chain: B2 chain with I25L, A41T, K42A, E46T
B9: CID210259 (designed binder)
chain: B2 chain with A43R, E46M, A47T
B10: CID213246 (designed binder)
chain: B3 chain with A41V, S42R, E43R, K44V, A46S
B11: CID213191 (designed binder)
chain: B3 chain with A41G, S42T, K44G, G45V, A46H
B12: CID213215 (designed binder)
chain: B3 chain with A41V, S42R, E43K, K44L, A46P
B13: CID213278 (designed binder)
chain: B3 chain with A41M, S42N, E43V, K44G, G45K, A46H
B14: CID213224 (designed binder)
chain: B3 chain with G23N, A41V, S42R, E43T, K44N
B15: SEQ ID NO: 42 (CID208847) (designed binder)
chain: B2 chain with I25L, A41V, K42P, N44G, P45V, E46A, A47N
B16: SEQ ID NO: 41 (CID208846) (designed binder)
chain: B3 chain with L25I, A41I, S42G, E43A, K44S, G45P, A46M

The binders below were run against T1, hIgG1-Fc (human, UniProt P01857-1 100-330 = IgG part, limits assumed) (assay: SPR, Biacore 3000).
T1 construct: domain: Fc; treated as the same molecule; also called IgG1 Fc region; hIgG-Fc
Excerpt: (§1) A CM5 sensor chip (GE Healthcare) was equilibrated with SPR running buffer. Surface-exposed carboxylic groups were activated by passing a mixture of EDC and NHS to yield reactive ester groups. 700-1500 RU on-ligand were immobilized on a flow cell, off-ligand was immobilized on another flow cell. Injection of ethanolamine after ligand immobilization removes non-covalently bound Ig binding protein. Upon ligand binding, protein analyte was accumulated on the surface increasing the refractive index. This change in the refractive index was measured in real time and plotted as response or resonance units (RU) versus time. The analytes were applied to the chip in serial dilutions with a suitable flow rate (µl/min). After each run, the chip surface was regenerated with regeneration buffer and equilibrated with running buffer. The control samples were applied to the matrix. Regeneration and re-equilibration were performed as previously mentioned. Binding studies were carried out by the use of the Biacore® 3000 (GE Healthcare) at 25° C.; data evaluation was operated via the BIAevaluation 3.0 software, provided by the manufacturer, by the use of the Langmuir 1:1 model (RI=0). Evaluated dissociation constants (KD) were standardized against off-target and KD values of different artificial Ig binding proteins for hIgG1-Fc (FIG. 2 and TABLE 6). For example, the KD of SEQ ID NO: 41 (CID208846) and SEQ ID NO: 42 (CID208847) is in single-digit µM range vs. hIgG1-Fc.
B1: binds. B2: binds. B3: binds. B4: binds.

Each binder was assayed against T1, hIgG1-Fc (assay: SPR, Biacore 3000, 25 C, Langmuir 1:1 model).
Excerpt: as §1
B5 gave a Kd of 103 nM. With B6 the Kd was 257 nM. With B7 the Kd was 43 nM. With B8 the Kd was 84 nM. In the case of B9, the Kd is reported as 507 nM. B10 gave a Kd of 248 nM. Work on B11 yielded a Kd of 132 nM. B12 was tested, and the Kd was 190 nM. For B13, the Kd was 199 nM. In the case of B14, the Kd is reported as 220 nM.

The binders below were run against T1, hIgG1-Fc (assay: SPR (Biacore) on hIgG1-Fc, one concentration, 1 µM).
Excerpt: Analysis via label-free interaction assays using SPR spectroscopy (BIAcore). Change in refractive index measured in real time and plotted as response or resonance unit [RU] versus time [sec]. […] Solid line = Ig binding protein SEQ ID NO: 41; dotted line = Ig binding protein SEQ ID NO: 42.
as §1, with “Binding studies were carried out by the use of the Biacore® 3000 (GE Healthcare) at 25° C.; data evaluation was operated via the BIAevaluation 3.0 software, provided by the manufacturer, by the use of the Langmuir 1:1 model (RI=0).” left out, “For example, the KD of SEQ ID NO: 41 (CID208846) and SEQ ID NO: 42 (CID208847) is in single-digit µM range vs. hIgG1-Fc.” left out
B15: binds. B16: binds.
